In US20140105915A1 (GlaxoSmithKline, published 2014):
Positions count from the first letter of the chain named.

T1: human BCMA on cells (human, UniProt Q02223 1-184)
T1 sequence (looked up): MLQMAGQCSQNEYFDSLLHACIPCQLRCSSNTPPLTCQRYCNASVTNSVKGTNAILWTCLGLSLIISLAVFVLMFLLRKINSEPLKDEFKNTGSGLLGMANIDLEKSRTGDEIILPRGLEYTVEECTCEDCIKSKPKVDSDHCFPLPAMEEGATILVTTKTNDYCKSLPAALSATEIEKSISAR

T2: recombinant human BCMA (in house) (human, UniProt Q02223 4-53, limits assumed)
T2 construct: Analyte in the ProteOn runs; also called Human in house BCMA; In house human BCMA
T2 chain (looked up): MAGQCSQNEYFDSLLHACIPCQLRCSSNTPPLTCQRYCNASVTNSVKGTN

B1: J6M0 potelligent (antibody, human IgG1, kappa, V domains shown)
VH: QVQLVQSGAEVKKPGSSVKVSCKASGGTFSNYWMHWVRQAPGQGLEWMGATYRGHSDTYYNQKFKGRVTITADKSTSTAYMELSSLRSEDTAVYYCARGAIYDGYDVLDNWGQGTLVTVSS
VL: DIQMTQSPSSLSASVGDRVTITCSASQDISNYLNWYQQKPGKAPKLLIYYTSNLHSGVPSRFSGSGSGTDFTLTISSLQPEDFATYYCQQYRKLPWTFGQGTKLEIKR
modifications: afucosylated (Potelligent) Fc glycan
notes: Same chains as J6M0, made in FUT8-deficient cells (afucosylated); human IgG1/kappa; also called J6M0 potelligent version; afucosylated (Potelligent) J6M0
B2: CA8 chimera (antibody, V domains shown)
VH: EVQLQQSGAVLARPGASVKMSCKGSGYTFTNYWMHWVKQRPGQGLEWIGATYRGHSDTYYNQKFKGKAKLTAVTSTSTAYMELSSLTNEDSAVYYCTRGAIYNGYDVLDNWGQGTLVTVSS
VL: DIQLTQTTSSLSASLGDRVTISCSASQDISNYLNWYQQKPDGTVELVIYYTSNLHSGVPSRFSGSGSGTDYSLTIGYLEPEDVATYYCQQYRKLPWTFGGGSKLEIKR
notes: also called chimeric CA8; human chimeric CA8
B3: CA8 humanised J7M1 (antibody, human IgG1, kappa, V domains shown)
VH: B1 VH with G27Y, S30T
VL: B1 VL with F71Y
notes: humanised, human IgG1/kappa
B4: CA8 humanised J6M0 (antibody, human IgG1, kappa, V domains shown)
VH: B1 VH
VL: B1 VL
notes: humanised, human IgG1/kappa; also called CA8 J6M0; humanised J6M0 (wild type)
B5: CA8 humanised J8M1 (antibody, human IgG1, kappa, V domains shown)
VH: B1 VH with G27Y, S30T, A97T
VL: B1 VL with F71Y
notes: humanised, human IgG1/kappa
B6: CA8 humanised J7M0 (antibody, human IgG1, kappa, V domains shown)
VH: B1 VH with G27Y, S30T
VL: B1 VL
notes: humanised, human IgG1/kappa
B7: CA8 humanised J7M2 (antibody, human IgG1, kappa, V domains shown)
VH: B1 VH with G27Y, S30T
VL: B1 VL with M4L, K45E, L47V, F71Y
notes: humanised, human IgG1/kappa
B8: CA8 humanised J8M0 (antibody, human IgG1, kappa, V domains shown)
VH: B1 VH with G27Y, S30T, A97T
VL: B1 VL
notes: humanised, human IgG1/kappa
B9: CA8 humanised J8M2 (antibody, human IgG1, kappa, V domains shown)
VH: B1 VH with G27Y, S30T, A97T
VL: B1 VL with M4L, K45E, L47V, F71Y
notes: humanised, human IgG1/kappa
B10: CA8 humanised J9M2 (antibody, human IgG1, kappa, V domains shown)
VH: B1 VH with A24G, G27Y, S30T, M48I, V68A, I70L, K74T, A97T
VL: B1 VL with M4L, K45E, L47V, F71Y
notes: humanised, human IgG1/kappa
B11: S307118G03 humanised H4L1 (antibody, human IgG1, kappa, V domains shown)
VH: QVQLVQSGAEVKKPGSSVKVSCKASGYTFTDYYMKWVRQAPGQGLEWMGEIYPNNGGITYNQKFKGRVTITADKSTSTAYMELSSLRSEDTAVYYCADGYEFVYWGQGTLVTVSS
VL: B1 VL with D28G, N53S, F71Y, R92S
notes: humanised, human IgG1/kappa

Key:
[1] = biological target: T3, recombinant human BCMA Fc 4-53 (human); assay: competition ELISA, coated recombinant human BCMA Fc 4-53, blocked ligand recombinant human BAFF (6 ng/mL), biotinylated anti-BAFF detection [A]
T3 construct: also called CD33-hBCMA ECD (4-53) TEV-Fc; recombinant BCMA coated on an ELISA plate
Experimental: 96 well flat bottomed plates were coated overnight with 1 μg/mL solution of recombinant human BCMA Fc 4-53 in PBS. Following a wash step using 0.05% TWEEN20, plates were blocked with 2% Bovine Serum Albumin solution in PBS for 1 hour at room temperature. […] 40 μL of 2% BSA was added to the relevant control wells. […] Equivalent volume of 2% BSA was added to the relevant control wells. Plates were allowed to incubate for 2 hours at room temperature, after which they were washed as before. […] Following a wash step, 50 μL of a 1:4000 dilution of Streptavidin-HRP (Amersham RPN4401) was added to each well and incubated for 30 minutes at room temperature. The wash process was repeated again followed by the addition of 100 μL of Tetramethylbenzidine substrate solution (T8665, Sigma) into each well. Plates were incubated for 20-25 minutes at room temperature, wrapped in foil. The reaction was stopped with the addition of 100 μL of 1M H₂SO₄. Optical density was determined at 450 nm using Spectromax reader.

human BCMA on cells [2] = biological target: T1, human BCMA on cells; assay: cell-based or functional assay
[3] = biological target: T4, cyno BCMA on HEK293 cells (cyno, UniProt A0A2K5UD97 1-183); assay: FMAT, HEK293 cells transfected with cyno BCMA, anti-human IgG FMAT Blue detection
T4 construct: whole, on cells; also called cyno BCMA HEK293
T4 sequence (A0A2K5UD97 entry or part of it): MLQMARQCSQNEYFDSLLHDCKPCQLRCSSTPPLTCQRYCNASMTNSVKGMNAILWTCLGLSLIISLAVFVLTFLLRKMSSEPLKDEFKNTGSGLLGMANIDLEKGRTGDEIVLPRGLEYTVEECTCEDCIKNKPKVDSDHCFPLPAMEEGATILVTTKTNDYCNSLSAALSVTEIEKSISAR
Experimental: (§1) Cryopreserved transfected human, cyno BCMA and mock transfected HEK293 cells were recovered from LN2 storage. […] The assay plates were left for a minimum of 90 minutes before the result was read on the AB18200 (FMAT) plate reader.

human BCMA on cells [4] = biological target: T1, human BCMA on cells; assay: FMAT, HEK293 cells transfected with human BCMA, anti-human IgG FMAT Blue detection
Experimental: as §1

[5] = biological target: T2, recombinant human BCMA (in house); assay: SPR ProteOn XPR36, mAb captured on Protein A, 25C, run 2
Experimental: The initial screen of CA8 chimeric and humanised variants was carried out on the ProteOn XPR36 (Biorad). The method was as follows; Protein A was immobilised on a GLC chip (Biorad, Cat No: 176-5011) by primary amine coupling, CA8 variants were then captured on this surface and recombinant human BCMA (in house or commercial US Biological, B0410) materials (run 2 only)) passed over at 256, 64, 16, 4, 1 nM with a OnM injection (i.e. buffer alone) used to double reference the binding curves, the buffer used is the HBS-EP buffer. 50 mM NaOH was used to regenerate the capture surface. The data was fitted to the 1:1 model using the analysis software inherent to the ProteOn XPR36. […] Both runs were carried out at 25° C.

[6] = biological target: T2, recombinant human BCMA (in house); assay: SPR ProteOn XPR36, mAb captured on Protein A, 25C, run 1

Binder | binding result [5] | other results
B1 |  | IC50 (read off the curve) [1]: ~0.8 µg/mL; IC50 for inhibition of APRIL signalling (phosphorylated NFkappaB in washed H-929 cells, MSD assay) (human BCMA on cells [2]): 2.43 µg/mL; IC50 for inhibition of BAFF signalling (phosphorylated NFkappaB in washed H-929 cells, MSD assay) (human BCMA on cells [2]): 0.91 µg/mL
B2 |  | EC50 (read off the curve) [3]: ~0.3 µg/mL; EC50 (read off the curve) (human BCMA on cells [4]): ~0.4 µg/mL
B3 | binds | 
B4 |  | IC50 (read off the curve) [1]: ~0.8 µg/mL
B5 | binds | 
B6 | binds | 
B7 | binds | 
B8 | binds | 
B9 | binds | 
B10 | binds | 
B11 |  | binding result [6]: no binding (tested: 256 nM (highest analyte concentration))
